Laboratory results as given in paper PMC3713010, “Sox2 Transcriptionally Regulates Pqbp1, an Intellectual Disability-Microcephaly Causative Gene, in Neural Stem Progenitor Cells”.

T1: Oct6 DNA-binding domain (BD-Oct6) (Mus musculus (B6), UniProt P21952 317-416)
T1 sequence: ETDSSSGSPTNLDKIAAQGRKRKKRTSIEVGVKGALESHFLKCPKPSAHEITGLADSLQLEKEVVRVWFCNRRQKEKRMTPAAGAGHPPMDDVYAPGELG

T2: Brn2 DNA-binding domain (BD-Brn2) (Mus musculus (B6), UniProt P31360 336-435)
T2 sequence: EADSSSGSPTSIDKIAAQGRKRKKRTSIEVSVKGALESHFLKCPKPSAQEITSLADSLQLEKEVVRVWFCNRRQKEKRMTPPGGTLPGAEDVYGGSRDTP


Experiments:
Assay in all cases: EMSA; 10% glycerol, 20 mM HEPES pH 7.8, 45 mM KCl, 10 mM NaCl, 1 mM EDTA, 1 mM DTT, 0.2 ug/uL BSA, 0.1% NP-40, 50 ng poly-dIdC; 20 ng each GST protein; room temperature 30 min (heterodimers 4 C); 6% PAGE 0.25x TBE
Details in all cases: protein: recombinant; tags: GST (N-terminal, pGEX-6P-1); label: 32P-dCTP fill-in of the 5' (dG)5 overhangs of both strands (Methods; control probes are given with GGG)
[1] = molecular target: T1, Oct6 DNA-binding domain (BD-Oct6)
How it was run: (§1)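 Transcription factor DNA-binding domains carrying a GST tag were expressed in E. coli BL21, purified on glutathione-sepharose and tested against annealed candidate cis-element oligonucleotides labelled with 32P-dCTP. Each reaction held 20 ng protein, 40,000–50,000 cpm probe and 50 ng poly-dIdC in HEPES/KCl glycerol buffer with BSA and detergent, incubated 30 min at room temperature, then run on 6% polyacrylamide in 0.25×TBE at 4°C. DNA binding was scored as the radioactivity of the band in the expected shift region, read on a phosphor imager.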

[2] = molecular target: T2, Brn2 DNA-binding domain (BD-Brn2)
How it was run: as §1

[3] = molecular target: Pax6 DNA-binding domain (BD-Pax6) (Mus musculus (B6), UniProt P63015 190-289)
How it was run: as §1

Pax6 DNA-binding domain (BD-Pax6), sequence (P63015 190-289): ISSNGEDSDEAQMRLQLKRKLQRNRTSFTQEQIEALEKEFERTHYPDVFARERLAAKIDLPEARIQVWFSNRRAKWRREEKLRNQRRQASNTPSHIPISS

Binder | binding result [1] | binding result [2] | binding result [3]
102b (dsDNA) DNA 1: GGGGGAAAACAAAACAAAACTGGATTTGGCGATTGTATCCCCC DNA 2: GGGGGATACAATCGCCAAATCCAGTTTTGTTTTGTTTTCCCCC | no binding | no binding | no binding
101 (dsDNA) DNA 1: GGGGGTGCCTCCTTTTGTGAGCTATTTATAATGCTAACCCCC DNA 2: GGGGGTTAGCATTATAAATAGCTCACAAAAGGAGGCACCCCC | binds | binds | no binding
113 (dsDNA) DNA 1: GGGGGACTAAGTCATTGTTTATTTCCGTGCTGTTCCCCC DNA 2: GGGGGAACAGCACGGAAATAAACAATGACTTAGTCCCCC | no binding | no binding | no binding
117 (dsDNA) DNA 1: GGGGGGAAAAACAAAGATTTAGTATAAACCCCC DNA 2: GGGGGTTTATACTAAATCTTTGTTTTTCCCCCC | no binding | no binding | no binding
110 (dsDNA) DNA 1: GGGGGTTTATTTATTTGTTTTATTTCTATTTTTCTTGGTGACCCCC DNA 2: GGGGGTCACCAAGAAAAATAGAAATAAAACAAATAAATAAACCCCC | binds | no binding | no binding
1 (dsDNA) DNA 1: GGGGGAAAATAACCAAAATAAAAAGTGTACAATTCAGTGGCCCCCC DNA 2: GGGGGGCCACTGAATTGTACACTTTTTATTTTGGTTATTTTCCCCC | no binding | no binding | no binding
102a (dsDNA) DNA 1: GGGGGGGATCCCCACAATACAAAAAAAACAAAAACAAAACCCCCC DNA 2: GGGGGGTTTTGTTTTTGTTTTTTTTGTATTGTGGGGATCCCCCCC | no binding | no binding | no binding
108 (dsDNA) DNA 1: GGGGGCATCTTATCGTTAATATATACGTTTGTTACATATACCCCC DNA 2: GGGGGTATATGTAACAAACGTATATATTAACGATAAGATGCCCCC | binds | binds | binds
107 (dsDNA) DNA 1: GGGGGACTAGTTTTCTATTACTACAAATCTCAACTCCCCC DNA 2: GGGGGAGTTGAGATTTGTAGTAATAGAAAACTAGTCCCCC | no binding | no binding | no binding
2 (dsDNA) DNA 1: GGGGGGCCATAGAATTGTACTTCTGTCACCAGTTTTATTTTTTTATTTCCCCC DNA 2: GGGGGAAATAAAAAAATAAAACTGGTGACAGAAGTACAATTCTATGGCCCCCC | no binding | no binding | no binding
104 (dsDNA) DNA 1: GGGGGCACAATTTTTATAATATATAATTGTTTCATCAACCCCC DNA 2: GGGGGTTGATGAAACAATTATATATTATAAAAATTGTGCCCCC | binds | binds | binds
11 (dsDNA) DNA 1: GGGGGGTGGGGTACAAAAATGGCCCTTTGTGATCAACTCCCCC DNA 2: GGGGGAGTTGATCACAAAGGGCCATTTTTGTACCCCACCCCCC | no binding | no binding | no binding
115 (dsDNA) DNA 1: GGGGGCTGGCCAGACAATGACGATATTTTTTTCCTTCACCCCCC DNA 2: GGGGGGTGAAGGAAAAAAATATCGTCATTGTCTGGCCAGCCCCC | no binding | no binding | no binding
118 (dsDNA) DNA 1: GGGGGGACAAGGGTCAATTTGCTAGACAAAGATCTTCACCCCC DNA 2: GGGGGTGAAGATCTTTGTCTAGCAAATTGACCCTTGTCCCCCC | no binding | no binding | no binding
10 (dsDNA) DNA 1: GGGGGACACACACACAAAGATTTATTTATTCATTTAATCCCCC DNA 2: GGGGGATTAAATGAATAAATAAATCTTTGTGTGTGTGTCCCCC | no binding | binds | no binding
112 (dsDNA) DNA 1: GGGGGTGTGTTCATTTGTTTTTATTTTAGAAGGAGTCCCCC DNA 2: GGGGGACTCCTTCTAAAATAAAAACAAATGAACACACCCCC | binds | binds | no binding
105 (dsDNA) DNA 1: GGGGGATTTTTTAAAAAATTAGACTACCACAAATCAACTGTCCCCC DNA 2: GGGGGACAGTTGATTTGTGGTAGTCTAATTTTTTAAAAAATCCCCC | binds | binds | binds
111 (dsDNA) DNA 1: GGGGGTTCAACCTTTTGTTGTATCATTTAAAAAACATTCCCCC DNA 2: GGGGGAATGTTTTTTAAATGATACAACAAAAGGTTGAACCCCC | binds | binds | no binding
9 (dsDNA) DNA 1: GGGGGTCCTGCCACTTGGGTTGCAGTGAGGACAATGAAATGAGCCCCC DNA 2: GGGGGCTCATTTCATTGTCCTCACTGCAACCCAAGTGGCAGGACCCCC | no binding | no binding | no binding
102c (dsDNA) DNA 1: GGGGGATTTGGCGATTGTATTATAATTGTCTATCAGTCCCCC DNA 2: GGGGGACTGATAGACAATTATAATACAATCGCCAAATCCCCC | binds | binds | binds
109 (dsDNA) DNA 1: GGGGGCTTTTTTTTTTGTATGTGATTTGAGGCAGAGTCCCCC DNA 2: GGGGGACTCTGCCTCAAATCACATACAAAAAAAAAAGCCCCC | no binding | no binding | no binding
106 (dsDNA) DNA 1: GGGGGGCTTCCCTAGAATTGGAGATACAAAGGGCTCTGCCCCC DNA 2: GGGGGCAGAGCCCTTTGTATCTCCAATTCTAGGGAAGCCCCCC | no binding | no binding | no binding
116 (dsDNA) DNA 1: GGGGGAAGGCCAGACTAATCTACAAAGTGAGTTCCCCCC DNA 2: GGGGGGAACTCACTTTGTAGATTAGTCTGGCCTTCCCCC | no binding | no binding | no binding
114 (dsDNA) DNA 1: GGGGGTGATTTTTGCAAAATTTTGTTTTGTTTCTTGAGCCCCC DNA 2: GGGGGCTCAAGAAACAAAACAAAATTTTGCAAAAATCACCCCC | no binding | no binding | no binding
100 (dsDNA) DNA 1: GGGGGCAACCAAAAAAAATGTATTTTACAAAAATCACAACCCCC DNA 2: GGGGGTTGTGATTTTTGTAAAATACATTTTTTTTGGTTGCCCCC | binds | no binding | binds
